Measurements from paper PMC9399855 (2022).

Columns and labels:
[1] = target: T1, 6.3HIP 12D>R (mutant of B13-19/ProSAAS 219-225) peptide on I-Ag7 (mouse); assay: cytokine release
T1 peptide: EALYLVCSVDQRLG

[2] = target: T2, 6.3HIP -1-14 (6.3HIP with a valine added at the N-terminus); RESTORED: the article prints …, which lacks the … (mouse); assay: cytokine release
T2 peptide: VEALYLVCSVDQDLG

[3] = target: T3, hybrid insulin peptide 6.3HIP: insulin B-chain B13-19 joined to ProSAAS 219-225 peptide on I-Ag7 (mouse); assay: cytokine release
T3 peptide: EALYLVCSVDQDLG

[4] = target: T4, 6.3HIP 2-14 (N-terminal truncation of the 6.3HIP) peptide on I-Ag7 (mouse); assay: cytokine release
T4 peptide: ALYLVCSVDQDLG

[5] = target: T5, 6.3HIP 10D>R (mutant of B13-19/ProSAAS 219-225) peptide on I-Ag7 (mouse); assay: cytokine release
T5 peptide: EALYLVCSVRQDLG

[6] = target: T6, 6.3HIP 1-11: insulin B-chain B13-19 joined to ProSAAS 219-222 peptide on I-Ag7 (mouse); assay: multimer staining
T6 peptide: EALYLVCSVDQ

B1: PD12-4.4 (TCR)
alpha TRAV5D-4 TRAJ53 CDR3: CAASASGGSNYKLTF
beta TRBV5 CDR3: CASSQDTNTGQLYF
binding result [1]: recognises | binding result [2]: recognises | binding result [3]: recognises | binding result [4]: no recognition | binding result [5]: no recognition | binding result [6]: recognises
